This is an account of results in publication PMC12756740, “A GH42 β‑Galactosidase from the Human Isolate Bifidobacterium breve DSM 20213: Biochemical and Transgalactosylation Properties Reveal the Potential for Galacto-oligosaccharides Synthesis” (ACS Omega, 2025).

This experiment deals with GH42 β-galactosidase Bbreβgal-III from Bifidobacterium breve DSM 20213 (Bifidobacterium breve DSM 20213). The experiment can be described thus: SEC-MALS; OMNISEC multidetector GPC/SEC (RI, UV/Vis, RALS 90° + LALS 7°); 22 μL injected at 13.4 mg/mL, 0.5 mL/min, 20 °C, DPBS without Ca2+ and Mg2+; dn/dc 0.185 mL/g; oligomeric state of the enzyme. (In gel filtration, larger molecules generally elute earlier.)

For orientation: stoichiometry N means a count of units in the complex or per binding partner. “GH42 β-galactosidase Bbreβgal-III from Bifidobacterium breve DSM 20213 (enzyme)”: the stoichiometry N came to 3.
